Data published in patent US12708677B2, “Contrast agents, methods for preparing contrast agents, and methods of imaging” (Georgia State University Research Foundation, Inc., priority 2008, dated 2026).
Marks after values point to notes of the source that are not given here.

Experiments:
[1] = Gd^3+-binding affinity, dye competition titration with Fluo-5N; conditions: phosphate 50 mM
Description: Gd^3+-binding Affinity Determination, […]-binding affinity of CA1.CD2 was determined by a competition titration with Fluo-5N applied as a Gd^3+ indicator. The fluorescence spectra of Fluo-5N were obtained with a fluorescence spectrophotometer (Photon Technology International, Inc.) with a 10 mm path length quartz cell at 22° C. Fluo-5N emission spectra were acquired at […] to 650 nm with an excitation at 488 nm. […] The experiment was performed with a gradual addition of CA1.CD2. An apparent constant, Kapp, was estimated by fitting the fluorescence emission intensity of Fluo-5N at 520 nm with different CA1.CD2 concentrations as a 1 to 1 binding model. Gd^3+-binding affinity of CA1.CD2, Kd2, was calculated with the following equation: […]
Since metal selectivity for Gd^3+ over other physiological metal ions is for minimizing the toxicity of the agents,^39, 40 we measured metal binding constants using dye-competition assays with various chelate-metal buffer systems (Table 1). […]
Gd^3+-binding affinities of CA1.CD2 and its pegylated variants were determined by a competition titration with Fluo-5N applied as a Gd^3+ indicator (Yang et al., JACS, 2008). The fluorescence spectra of Fluo-5N were obtained with a fluorescence spectrophotometer (Photon Technology International, Inc.) with a 10 mm path length quartz cell at 22° C. […]

[2] = Ca^2+ binding constant, dye competition / Tb^3+ FRET competition
Text: Since metal selectivity for Gd^3+ over other physiological metal ions is for minimizing the toxicity of the agents,^39, 40 we measured metal binding constants using dye-competition assays with various chelate-metal buffer systems (Table 1). Low limit metal binding affinities of the proteins were also estimated based on Tb^3+-sensitized FRET and competition assays. […] This is considered for in vivo applications of the contrast agent as the phosphate concentration in serum is maintained at ~1.3 mM.^6, 9 The stability of a contrast agent in blood circulation is another factor for in vivo applications. We characterized the stability by incubating Gd-CA1.CD2 with 75% human serum at 37° C. for 3 and 6 hours.
Metal binding affinity for Ca^2+ and Zn^2+ were determined using similar competition methods and specific dyes with proper Kd values.

[3] = In vitro r1 and r2 proton relaxivity; format: physicochemical
Description: Determination of r1 and r2 Relaxivity Values, Relaxation times, T1 and T2, were determined at 1.5, 3, 9.4 Tesla using a Siemens whole-body MR system (1.5, 3T) or a Bruker MRI scanner (9.4T). T1 was determined using inversion recovery and T2 using a multi-echo Carr-Purcell-Meiboom-Gill (CPMG) sequence. The contrast agent samples (200 μl) with different concentrations were placed in eppendorf tubes. The tubes were placed on a tube rack, which was placed in MRI scanners for the measurement of relaxation times r1 and r2 were calculated based on r1(mM^−1 S^−1)=(1/T1s−1/T1c)/C and r2(mM^−1 S^−1)=(1/T2s−1/T2c)/C, where T1s and T2s are relaxation times with contrast agent and T1c and T2c are relaxation times without contrast agent. C is the concentration of contrast agent in mM (the measured Gd^3+ concentrations by ICP-MS). […]

[4] = Serum stability in human serum at 37° C., SDS-PAGE; format: in vitro ADME; conditions: 75% human serum, 37° C., 6 hours
Description: Serum stability. […] The degradation of the protein (disappearance of 12 kDa protein band) was analyzed by SDS-PAGE and visualized by coomassie blue staining. In parallel, the degradation of the protein was also analyzed by immunoblot using antibodies OX54 or PabCD2. The identities of the 12 kDa bands as CA1.CD2 were always verified by immunobloting using antibody PabCD2.
[…] The degradation of the protein (disappearance of 12 kDa protein band) was analyzed by SDS-PAGE and visualized by coomassie blue staining for protein and idiol staining for PEG moiety. In parallel, the degradation of the protein was also analyzed by immunoblot using antibodies OX54 or PabCD2. The identities of CA1.CD2 and pegylated variants were verified by immunoblotting using antibody PabCD2.and idiol staining.

AU565 = test: MR imaging of cancer cell pellets; format: cell-based
Description: (§1) To test whether our designed proteins are applicable for targeted imaging, we carried out MR imaging of cancer cells that were incubated with the designed protein contrast agents Gd-CA1-Affi using four different cancer cell lines with different expression levels of HER2. […] The MR image contrast enhancements from the contrast agent can be correlated to the HER2 levels.

SKOV3 = test: MR imaging of cancer cell pellets; format: cell-based
Description: as §1

CD-1 mice = test: Toxicity analyses and clinical pathology in mice
Description: Toxicity Analyses. […] Tissue samples from kidney, liver, spleen, and lung were collected.
One group of mice received (i.v. tail veil) 50 μl of saline-buffer (as control). […] Blood samples were collected from the experimental mice. Serum samples were prepared from the collected blood. Liver enzymes in serum samples, including Alanine transaminase (ALT), Alkaline phosphatase (ALP), Aspartate transaminase (AST), Gamma glutamyl transpeptidase (GGT), and bilirubin and urea nitrogen were analyzed by a commercially available source (MU Research Animal Diagnostic Laboratory). All clinical chemistry parameters were measured on an Olympus AU 400 analyzer.
Tissue samples from kidney, liver, spleen, and lung were collected.

B1: CA1.CD2: designed Gd^3+-binding protein, domain 1 of rat CD2 with ligand residues Glu15, Glu56, Asp58, Asp62, Asp64 (protein)
chain: RDSGTVWGALGHGIELNIPNFQMTDDIDEVRWERGSTLVAEFKRKMKPFLKSGAFEIDANGDLDIKNLTRDDSGTYNVTVYSTNGTRILNKALDLRILE
[1]
  removal of Gd^3+ from the protein by phosphate: not able to remove the Gd^3+ from the protein
[2]
  Metal binding constant (Log Ka) Ca^2+: <2.22
  disassociation constant (Kd) for Ca^2+: ≥ 6 mM
[2]; metal selectivity
  Log (KGd/KCa): >9.84

B2: Gd-CA1.CD2: CA1.CD2 in complex with Gd^3+ (protein)
chain: B1 chain
[3]; 1.5T
  r1 relative to Gd-DTPA: about 20 fold
[3]; B0 1.5 T
  r1: up to 117 mM^−1 s^−1
[3]; B0 1.5 T, listed as CA1
  r1: 117 mM⁻¹ s⁻¹
[3]; B0 3 T
  r1: 48 mM⁻¹ s⁻¹
[3]; B0 9.4 T
  r1: 6 mM⁻¹ s⁻¹
[4]
  stability of protein-Gd complex in serum: remained intact
AU565
  MR image of AU565 cell pellets: no significant changes in MR image
SKOV3
  MR image of SKOV3 cell pellets: no significant changes in MR image
CD-1 mice; 4.0 μmole/kg, n = 4
  ALP: 115.0 ± 0.2 U/L
  ALT: 49.0 ± 0.2 U/L
  AST: 280.0 ± 0.2 U/L
  Direct Bili: 0.0 mg/L
  GGT: 0.0 U/L
  Total Bili: 0.4 ± 0.2 mg/L
  Total Urine Protein: 5.2 ± 0.2 g/L
  Urea Nitrogen: 26.0 ± 0.2^d mg/L
CD-1 mice; 48 hours post-contrast injection
  effects on liver enzymes (ALT, ALP, AST), serum urea nitrogen, bilirubin, total protein vs control mice: negligible
CD-1 mice; ~2.4 μmole/kg, observed five days
  acute toxicity: did not exhibit acute toxicity
